# Results as given in doi:10.1101/2024.02.17.580827 (bioRxiv, 2024).
# T1: FolK (purified protein) (E. coli, UniProt P26281 1-159)
# T1 sequence: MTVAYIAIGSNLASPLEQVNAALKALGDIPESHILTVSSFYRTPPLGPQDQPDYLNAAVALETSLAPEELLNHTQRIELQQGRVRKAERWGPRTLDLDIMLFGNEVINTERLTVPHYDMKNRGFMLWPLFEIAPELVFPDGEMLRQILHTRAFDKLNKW
# Target: T1, FolK (purified protein)
# Test: Raman spectroscopy
row,Binder,Kd
1,WT DHFR (purified protein) (enzyme) MISLIAALAVDRVIGMENAMPWNLPADLAWFKRNTLNKPVIMGRHTWESIGRPLPGRKNIILSSQPGTDDRVTWVKSVDEAIAACGDVPEIMVIGGGRVYEQFLPKAQKLYLTHIDAEVEGDTHFPDYEPDDWESVFSEFHDADAQNSHSYCFEILERR,22 µM
2,N23V DHFR (purified protein) (enzyme) MISLIAALAVDRVIGMENAMPWVLPADLAWFKRNTLNKPVIMGRHTWESIGRPLPGRKNIILSSQPGTDDRVTWVKSVDEAIAACGDVPEIMVIGGGRVYEQFLPKAQKLYLTHIDAEVEGDTHFPDYEPDDWESVFSEFHDADAQNSHSYCFEILERR,5.1 µM
3,D132H DHFR (purified protein) (enzyme) MISLIAALAVDRVIGMENAMPWNLPADLAWFKRNTLNKPVIMGRHTWESIGRPLPGRKNIILSSQPGTDDRVTWVKSVDEAIAACGDVPEIMVIGGGRVYEQFLPKAQKLYLTHIDAEVEGDTHFPDYEPDHWESVFSEFHDADAQNSHSYCFEILERR,8.1 µM
4,D144N DHFR (purified protein) (enzyme) MISLIAALAVDRVIGMENAMPWNLPADLAWFKRNTLNKPVIMGRHTWESIGRPLPGRKNIILSSQPGTDDRVTWVKSVDEAIAACGDVPEIMVIGGGRVYEQFLPKAQKLYLTHIDAEVEGDTHFPDYEPDDWESVFSEFHDANAQNSHSYCFEILERR,10 µM
